This note sets out measurements from the nanobody polyreactivity screen of Harvey et al. (2022).

The series can be described thus: yeast display, Sf9 membrane polyspecificity reagent, FACS + sequencing; frameworks hold sequencing errors. The procedure, abridged: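 Nanobodies came from a synthetic yeast display library in Saccharomyces cerevisiae BJ5465, induced with galactose for 36–48 hours and stained for 1 hour at 4 °C with 10% biotinylated, detergent-solubilized Sf9 membrane reagent. Cells were enriched on streptavidin microbeads and then FACS-sorted, with low and high (top ~1%) gates set on anti-HA fluorescence for expression and streptavidin fluorescence for reagent binding. Each polyreactivity label reflects the gate a clone came from. Genes were amplified by colony PCR, sequenced by MiSeq 2 × 250 and filtered by CDR length.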
Regarding “QVQLVESGGGLDQAGGSLSLSCAASGLIINSNTMGWYRQAPGKERELVAVINWRGGRTYYADSVKGRFTISRDNAKNTVDLQMNSLKPEDTAVYYCAAYLHGARYGYWGQGTQVTVSS”, the “polyreactivity (PSR sort gate)” value is “high polyreactivity”.

With “QVQLVESGGGLDQAGRSLRLSCAASGRTDVTYAMGWYRQAPGKEREFVAAISASGGTTYYADSVKGRFTISRDNSKNTVYLQMNSRKPEDTAVYYCAADIRGTVYLSSFWMEYWGQGTQVNVSS”, the “polyreactivity (PSR sort gate)” value is listed as “low polyreactivity”.

Consider “QVQLVESGGGLDQAGVSLRLSCAASGSTFRIYAMGWYRPAPGKERELVAAISRSGGSTYYADSVKGRFTISRDNAKNTVYLQMNSLKPEDTAVYYCAALSVASRWFGRGTGGYWGQGTQVTVSS”, for which the “polyreactivity (PSR sort gate)” value was “high polyreactivity”.

In the case of “QVQLVESGGGLDQAGVSLRLSSAASGSTFVRNAMGCYRQAPGKEREWVAAINIGGSTYYADSVKGRFTISRDNAKNTVYLQMNSLKPEDTAVYYFAARIKYRYDWGQGTQVTVSS”, the “polyreactivity (PSR sort gate)” value is on record as “low polyreactivity”.

Take “QVQLVESGGGLDQARGSLRLSCAASAPTFNSNAMGWYRQAPGKERDLVADINGGGSTYYADSVKGRFTISRDNAKNTVYLQMNSLKPEDTAVYYCAKCYTWYVWYPHGYWGQGTQVTVSS”: the “polyreactivity (PSR sort gate)” value is listed as “low polyreactivity”.

With “QVQLVESGGGLDQARGSLRLSCAASGGIFDHNAMGWYRQAPGKEREFVAAITWSGGGTYYADSVKGRFTISRDNAKNTVYLQMNSLKPEDTAVYYCAATVYGIYYYGKDRYDYWGQGTQVTVSS”, the “polyreactivity (PSR sort gate)” value is “low polyreactivity”.

With “QVQLVESGGGLDQARGSLRLSCAASGRIFRSYVMGWYRQAPWKERELVAAISWRGGSTYADSVKGRFTISRDNAKNTVYLQMNSLKPEDTAVYYCAARGPYTYRRYCYWGQGTQVTVSS”, the “polyreactivity (PSR sort gate)” value was “high polyreactivity”.

For the sequence “QVQLVESGGGLDQARGSLRLSCAASGSTFYLYAMGWYRQAPGKERELVAAISSGGRTYYADSVKGRFTISRDNAKNTVYLQMNSLKPEDTAVYYCAKVYRRRYYWGQGTQVTVSS”, the “polyreactivity (PSR sort gate)” value is “high polyreactivity”.

As for “QVQLVESGGGLDQARGSLRLSCAASGTTIGGNAMGWYRQAPGKERELVAAIDSGGSTYADSVKGRFTISRDNAKKTVYVQMNSLKPEDTAVYYCAAVWEFVHFWSFDYWGQGTQVTVSS”, the “polyreactivity (PSR sort gate)” value is reported as “low polyreactivity”.

Consider “QVQLVESGGGLDQARGSLRLSCPASGFIFTDYAMGWYRQAPGKERELVAGISGSGGRTYYADSVKGRFTISRDNAKNTVYLQMNSLKPEDTAVYYCAARGVPWLWYFRGMYWGQGTQVTVSS”, for which the “polyreactivity (PSR sort gate)” value is “high polyreactivity”.

Consider “QVQLVESGGGLDQSGGSLRLTCAASGFTFVINDMGRYIHAPGKEMEWVADITSGGDTYYADSVKGRFTISRDNAKNTVYLQSNRLKPEDTAVYYCAADIYPDWIYLLYGYWGQGTQVNVSS”, for which the “polyreactivity (PSR sort gate)” value was “low polyreactivity”.

Turning to “QVQLVESGGGLEQAGGSLRLTWAASGRIFYVYAMGLYIQAPGKERELVAAITWRGGTTYYADSVKGRFTISRDNAQNTVYLEMNSLKPEDTAVYYCNAKYFRSYYSIEYDYWGQGTQVTVSS”, the “polyreactivity (PSR sort gate)” value is on record as “low polyreactivity”.

Regarding “QVQLVESGGGLFHAGGSLRLSCAASGSTFSRNAMGWYIPAPGKEREFVAAISWSGSSTYYADSVKGRFTISRDNAKNTVYLQMNSLKPEDTAVYYCAARSYYDGFYYWGQGTQVTVSS”, the “polyreactivity (PSR sort gate)” value is given as “high polyreactivity”.

Regarding “QVQLVESGGGLFKAGGSLRLRCAPSGSIFDYNTMAWYRQAPGKERQFVAAISSARGGTSYADSVKGRFTISRDNAKNTVYLQMNSLKPEDTAVYYCAALIILTPYQRQYWKYGAYFYWGQGTQVTVSS”, the “polyreactivity (PSR sort gate)” value is given as “high polyreactivity”.

“QVQLVESGGGLFKAGGSLRLSCAASGRIFEKYAMGWYRQAPGKERELVAAISYSGGSTYYADSVKGRFTISRDNAKNTVYFQMNCLKPEDTAVYYCARYSRTQAYDYWGQGTQVTVSS”: the “polyreactivity (PSR sort gate)” value is “high polyreactivity”.

Turning to “QVQLVESGGGLFQAGGILRLSCAASGRTFHRNAMGWYRLAPGKERELVAAITGDGRTNYADSVKGRFTISRDNAKNTVYLQMNSLKPEDTAVYYCAARFSYRSYDYWGQGSQVTVSS”, the “polyreactivity (PSR sort gate)” value was “low polyreactivity”.

For the sequence “QVQLVESGGGLFQAGGRLRLSCAASGRNCNAYTMGWYRQAPGKERELVAAISRRGGSTYYADSVKGRFTISRDNAQNTVSLQMNSLNPEDTAVYYCATKSQYDYDYWGQGTQVTVSS”, the “polyreactivity (PSR sort gate)” value was “high polyreactivity”.

On to “QVQLVESGGGLFQAGGRLRLSCAPSGGTLPKYAMAWYRHAPGKERELVARITWNDGTTYYADSVKGRFTISRDNAKNTVYLQMNSLIPEDTAVYYCNTDRAYWFLYPFSYYYWGQGTQVTVSS”, for which the “polyreactivity (PSR sort gate)” value was “low polyreactivity”.

Take “QVQLVESGGGLFQAGGSLRISCAASGGTFFRYAMGWYRQAPGKERELVAAITWSSGSTYYADSVKGRFTISRDNAKNTGYLQMNSLKPEDTAVYYYDYYTYGDYWGQGTEVTVSS”: the “polyreactivity (PSR sort gate)” value was “low polyreactivity”.

With “QVQLVESGGGLFQAGGSLRLICAASGRTYYAYARGWYRQAPGKERELVAAITSGGSTYYADSVKGRFTISRDNAKNTVYLQMNSLKPEDTAVYYCNAGYYQWPFSGYDYWGQGTQVTVSS”, the “polyreactivity (PSR sort gate)” value is recorded as “low polyreactivity”.

Take “QVQLVESGGGLFQAGGSLRLICADSGRTFGYNAMGWYRKATGKDRELVAAINWSGASTYYADSVKGRFTISRDNAKNTVYLQMNCLKPEDTAVYYCAAAYSYIYGFDYWGQGTQVTVSS”: the “polyreactivity (PSR sort gate)” value is “low polyreactivity”.

“QVQLVESGGGLFQAGGSLRLRCAATGLIFDLYAMGWYRQAPGKERELVAVISYDGGSTYYADSVKGRFTISRDNAKNTVYLQMNSLKPEETAVYYCNTFDGLVSPSDLYDYWGQGTQVTVSS”: the “polyreactivity (PSR sort gate)” value is given as “low polyreactivity”.

For the sequence “QVQLVESGGGLFQAGGSLRLSCAASGFIFRDNAMGWYRQAPGKERELVAAISWSSDSTYYADSVKGRFTISRDNEKNTVYLQMNSLNPEDSAVYYCAGKGQRGYWWGFDYWGQGTQVTVSS”, the “polyreactivity (PSR sort gate)” value was “low polyreactivity”.

Regarding “QVQLVESGGGLFQAGGSLRLSCAASGFIFRYYAMGWYRQAPGKERELVAAITRGGSTYYADSVKGRFTISRDNAKNTVYLQMNSLKPEDTAVYDCAARLYTQYYYWGQCTQVTVSS”, the “polyreactivity (PSR sort gate)” value is listed as “high polyreactivity”.

Take “QVQLVESGGGLFQAGGSLRLSCAASGFIFYPNAMGWYRQAPGKEREWVAAITDSGGSTYYADSVKGRFTISRDNAKNTVYLQMNSLKPEDTAVYYCNADYGGYYWTWGYDYWGQGTQVTVSS”: the “polyreactivity (PSR sort gate)” value is recorded as “low polyreactivity”.

Consider “QVQLVESGGGLFQAGGSLRLSCAASGFTFFIYAMGGSRQAPGKEREFVAAITGSGGSTYYADSVKGRFTISRDNAKNTVYLQLNSLKPEDTAVYYCNKLSYGRSGYWGQGTQVTVSS”, for which the “polyreactivity (PSR sort gate)” value is on record as “high polyreactivity”.

“QVQLVESGGGLFQAGGSLRLSCAASGFTFGYYAMGWYRQAPGKERELVASISITAGSTYYADSVKGRFTISRDNAKNTVYLQMNSLKPEDTAVYYCAAKRRTRQSYYTEYYWGQGTQVTVSS”: the “polyreactivity (PSR sort gate)” value is on record as “high polyreactivity”.

With “QVQLVESGGGLFQAGGSLRLSCAASGFTFRTYAMGWYRQAPGKERELVATIRRAGSTNYADSVKGRFTISRDNAKNTVYLQMNRLKPEDTAVYYCNAGFSHRSDNGIDGYYWGPGTQVTVSS”, the “polyreactivity (PSR sort gate)” value is listed as “high polyreactivity”.

With “QVQLVESGGGLFQAGGSLRLSCAASGGIFPFYAMGWYRQAPGKERELVAAISSGGSTNYADSVKGRFTISRDNAKNTVYLQMNSLKPEDTAVYYWNTVFQLGEGGSYGYDYWGQGTQVTVSS”, the “polyreactivity (PSR sort gate)” value is “low polyreactivity”.

“QVQLVESGGGLFQAGGSLRLSCAASGITFAYYAMAWYRQAPGKERELVARISRRGGSTYYADSVKGRFTISRDNAKNTVYLQMNSLKPEDTAVYYCAARVVVPKPYVDGDYWGQGTQVTVSS”: the “polyreactivity (PSR sort gate)” value is recorded as “high polyreactivity”.
